{"source": "patent US20240082816A1", "key": {"IgG [1]": {"biological_target": "IgG", "experiment": "affinity precipitation: C12-VVEE to binding molecule 50:1, binding molecule to IgG 10:1, 1 M ammonium sulfate"}, "IgG [2]": {"biological_target": "IgG", "experiment": "affinity precipitation: C12-VVEE to binding molecule 50:1, binding molecule to IgG 10:2, 1 M ammonium sulfate"}, "IgG [3]": {"biological_target": "IgG", "experiment": "affinity precipitation: co-assembled with C12-VVEE at 10:1, binding molecule to IgG 10:1, 1 M ammonium sulfate, IgG in the supernatant by ProA column"}, "[4]": {"biological_target": "therapeutic human IgG1 (human)", "experiment": "affinity precipitation: 5 mM C12-Z33 with 20 µM IgG1, 0.6 M Na2SO4, absorbance of the supernate at 280 nm"}, "[5]": {"biological_target": "therapeutic human IgG1 (human)", "experiment": "ITC, 15 °C, PBS pH 7.4, reported per IgG1"}, "[6]": {"biological_target": "therapeutic human IgG1 (human)", "experiment": "ITC, 15 °C, PBS pH 7.4, reported per ligand"}}, "note": "pKd: −log10 of the molar value.", "data": [{"substance": "C12-VVKKGG-Z33 binding molecule (peptide)", "values": [{"measurement": "IgG precipitation yield", "setting": "IgG [1]", "result": 99, "unit": "%"}, {"measurement": "IgG precipitation yield", "setting": "IgG [2]", "result": 75, "unit": "%"}, {"measurement": "IgG precipitated out from the solution", "setting": "IgG [3]", "result": 30, "unit": "%"}]}, {"substance": "C12-Z33 immuno-amphiphile (self-assembled immunofibers) (peptide)", "values": [{"measurement": "IgG1 removed from the supernate", "setting": "[4]", "result": "> 60", "unit": "%"}]}, {"substance": "Z33 peptide", "values": [{"measurement": "-TΔS°", "setting": "[5]", "result": 43.4, "unit": "kcal/mol"}, {"measurement": "ΔG°", "setting": "[5]", "result": -10, "unit": "kcal/mol"}, {"measurement": "ΔH°", "setting": "[5]", "result": -53.4, "unit": "kcal/mol"}, {"measurement": "-TΔS°", "setting": "[6]", "result": 13.6, "unit": "kcal/mol"}, {"measurement": "pKd", "setting": "[6]", "result": 7.22}, {"measurement": "ΔG°", "setting": "[6]", "result": -9.5, "unit": "kcal/mol"}, {"measurement": "ΔH°", "setting": "[6]", "result": -23.1, "unit": "kcal/mol"}]}]}
